# Assay results reported in patent US20120107330A1 (published 2012).
# Ends that are not written are not given here.
# T1: human TNFR1 (recombinant, R&D Systems cat no. 636-R1/CF, biotinylated) (human, UniProt P19438 30-211, limits assumed, biotinylated with EZ-Link NHS-LC-LC-biotin)
# T1 construct: it is not tied to the BIAcore reagent; also called p55; hTNFR1
# T1 sequence (looked up): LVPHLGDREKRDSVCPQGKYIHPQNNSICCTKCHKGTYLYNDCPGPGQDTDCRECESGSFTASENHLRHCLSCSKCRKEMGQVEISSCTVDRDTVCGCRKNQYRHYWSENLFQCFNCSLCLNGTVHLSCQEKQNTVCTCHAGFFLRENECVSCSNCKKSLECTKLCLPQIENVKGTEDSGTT
# T2: peptide E5 (overlapping domain-3 peptide of human TNFR1) (human, also: biotinylated, position not given here)
# T2 construct: also called peptide 3
# T2 peptide: SGSGNQYRHYWSENLFQCF
# T3: peptide A3 (negative control fragment of human TNFR1) (human, cysteine pairing not given here; also: biotinylated, position not given here)
# T3 construct: also called control peptide
# T3 peptide: SGSGNDCPGPGQDTDCREC
# T4: peptide D5 (domain-3 peptide of human TNFR1) (human, also: biotinylated, position not given here)
# T4 construct: also called peptide 2
# T4 peptide: SGSGCRKNQYRHYWSENLF
# T5: human TNFR1 on MRC-5 cells (human, UniProt P19438 30-455)
# T5 sequence (looked up): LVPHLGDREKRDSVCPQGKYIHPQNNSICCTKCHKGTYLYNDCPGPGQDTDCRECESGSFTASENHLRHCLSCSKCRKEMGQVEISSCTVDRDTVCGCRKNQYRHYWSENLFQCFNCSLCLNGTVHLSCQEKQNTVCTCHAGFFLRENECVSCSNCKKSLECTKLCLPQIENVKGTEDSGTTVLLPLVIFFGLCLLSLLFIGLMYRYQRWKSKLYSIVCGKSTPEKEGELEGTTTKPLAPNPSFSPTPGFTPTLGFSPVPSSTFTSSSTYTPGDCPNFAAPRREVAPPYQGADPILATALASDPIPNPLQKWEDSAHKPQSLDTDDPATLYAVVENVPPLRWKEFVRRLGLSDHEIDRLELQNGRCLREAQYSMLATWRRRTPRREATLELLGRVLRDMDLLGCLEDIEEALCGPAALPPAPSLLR
# T6: peptide D2 (domain-1 peptide of human TNFR1) (human, cysteine pairing not given here; also: biotinylated, position not given here)
# T6 construct: also called peptide 1
# T6 peptide: SGSGNSICCTKCHKGTYLY
# T7: mouse TNFR1 (recombinant, R&D Systems cat no. 425-R1-050/CF, biotinylated) (mouse, UniProt P25118 22-212, biotinylated with EZ-Link NHS-LC-LC-biotin)
# T7 construct: also called murine TNFR1; biotinylated mouse TNFR1
# T7 sequence (looked up): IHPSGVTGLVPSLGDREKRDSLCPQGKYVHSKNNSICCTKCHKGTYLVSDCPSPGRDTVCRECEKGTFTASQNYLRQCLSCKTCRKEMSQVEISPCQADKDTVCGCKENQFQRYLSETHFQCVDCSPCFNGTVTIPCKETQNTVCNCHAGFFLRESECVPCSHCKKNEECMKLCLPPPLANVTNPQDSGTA
# Columns and labels:
# [1] = target: T1, human TNFR1 (recombinant, R&D Systems …); experiment: BIAcore, human TNFR1 on SA chip
# [2] = target: T2, peptide E5 (overlapping domain-3 …); experiment: BIAcore, biotinylated peptide E5 on SA chip, dAb at 2.5 µM
# [3] = target: T3, peptide A3 (negative control fragment …); experiment: BIAcore, biotinylated peptide A3 on SA chip
# [4] = target: T4, peptide D5 (domain-3 peptide of human …); experiment: BIAcore, biotinylated peptide D5 on SA chip, dAb at 2.5 µM
# [5] = target: T5, human TNFR1 on MRC-5 cells; experiment: cell-based or functional assay
# [6] = target: dog TNFR1 (recombinant, R&D Systems cat no. 4017-TR-025/CF, biotinylated) (dog); experiment: BIAcore, dog TNFR1 on SA chip
# [7] = target: T6, peptide D2 (domain-1 peptide of human …); experiment: BIAcore, biotinylated peptide D2 on SA chip, dAb at 2.5 µM
# [8] = target: T1, human TNFR1 (recombinant, R&D Systems …); experiment: BIAcore, human TNFR1
# [9] = target: T1, human TNFR1 (recombinant, R&D Systems …); experiment: BIAcore, human TNFR1 on SA chip; remark: listed apart in the source
# Excerpt: (§1) A significant advantage for an anti-TNFR1 dAb would be cross-reactivity between different species. Given the limited conservation of the sequence of the extracellular domain of TNFR1 between mouse, dog, Cynomologus monkey and human (FIG. 6), it would be exceptional for any antibody or single variable domain to recognize TNFR1 of these different species at similar affinities. […] For each of these experiments the TNFR1 was biotinylated using EZ-Link NHS-LC-LC-biotin (Pierce cat no. 21343), according to the manufacturer's instructions, followed by binding of the biotinylated TNFR1 to a Streptavidin-coated BIAcore chip. […] Examples for binding to the different species are shown in FIGS. 7 and 8, with a summary of the results in Table 2.
# [10] = target: T7, mouse TNFR1 (recombinant, R&D Systems …); experiment: BIAcore, mouse TNFR1 on SA chip
# Excerpt: as §1
# [11] = target: T5, human TNFR1 on MRC-5 cells; experiment: cell-based or functional assay; remark: listed apart in the source
# [12] = target: T8, mouse serum albumin (MSA, Sigma-Aldrich) (mouse, UniProt P07724 25-608); experiment: BIAcore, MSA; DMS0169 (DOM7h-11-12 AlbudAb)
# T8 construct: also called mouse albumin
# [13] = target: T8, mouse serum albumin (MSA, Sigma-Aldrich); experiment: BIAcore, MSA; DMS0168 (DOM7m-16 AlbudAb)
# [14] = target: T8, mouse serum albumin (MSA, Sigma-Aldrich); experiment: BIAcore; mouse albumin
# rat albumin = target: T9, rat albumin (rat, UniProt P02770 25-608); experiment: BIAcore; rat albumin
# T9 construct: also called rat serum albumin
# T9 sequence (P02770 25-608 limits assumed): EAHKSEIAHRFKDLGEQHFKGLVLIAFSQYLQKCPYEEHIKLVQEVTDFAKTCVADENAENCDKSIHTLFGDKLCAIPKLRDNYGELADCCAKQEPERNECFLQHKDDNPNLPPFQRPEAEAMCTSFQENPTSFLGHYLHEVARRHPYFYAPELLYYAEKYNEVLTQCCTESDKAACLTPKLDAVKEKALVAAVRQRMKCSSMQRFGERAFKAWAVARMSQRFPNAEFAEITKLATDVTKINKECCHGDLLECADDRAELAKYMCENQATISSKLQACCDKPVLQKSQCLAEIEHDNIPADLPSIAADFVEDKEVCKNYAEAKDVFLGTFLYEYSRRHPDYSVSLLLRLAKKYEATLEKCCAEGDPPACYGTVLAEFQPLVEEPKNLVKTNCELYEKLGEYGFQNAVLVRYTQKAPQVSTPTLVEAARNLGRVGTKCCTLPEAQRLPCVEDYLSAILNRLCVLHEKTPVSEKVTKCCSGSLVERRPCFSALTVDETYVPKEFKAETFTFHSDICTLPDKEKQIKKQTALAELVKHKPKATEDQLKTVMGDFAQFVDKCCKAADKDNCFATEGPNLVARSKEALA
# [15] = target: T8, mouse serum albumin (MSA, Sigma-Aldrich); experiment: BIAcore, MSA on CM5 chip
# Method in brief: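 DOM0100 anti-TNFR1 dAb–linker–AlbudAb fusions were injected at 1 μM over MSA amine-coupled to a CM5 chip. Binding was monitored by SPR, and off-rates were determined.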
# [16] = target: T10, human serum albumin (HSA, Sigma-Aldrich) (human, UniProt P02768 25-609); experiment: BIAcore, HSA on CM5 chip
# T10 construct: also called human albumin
# T10 sequence (P02768 25-609 limits assumed): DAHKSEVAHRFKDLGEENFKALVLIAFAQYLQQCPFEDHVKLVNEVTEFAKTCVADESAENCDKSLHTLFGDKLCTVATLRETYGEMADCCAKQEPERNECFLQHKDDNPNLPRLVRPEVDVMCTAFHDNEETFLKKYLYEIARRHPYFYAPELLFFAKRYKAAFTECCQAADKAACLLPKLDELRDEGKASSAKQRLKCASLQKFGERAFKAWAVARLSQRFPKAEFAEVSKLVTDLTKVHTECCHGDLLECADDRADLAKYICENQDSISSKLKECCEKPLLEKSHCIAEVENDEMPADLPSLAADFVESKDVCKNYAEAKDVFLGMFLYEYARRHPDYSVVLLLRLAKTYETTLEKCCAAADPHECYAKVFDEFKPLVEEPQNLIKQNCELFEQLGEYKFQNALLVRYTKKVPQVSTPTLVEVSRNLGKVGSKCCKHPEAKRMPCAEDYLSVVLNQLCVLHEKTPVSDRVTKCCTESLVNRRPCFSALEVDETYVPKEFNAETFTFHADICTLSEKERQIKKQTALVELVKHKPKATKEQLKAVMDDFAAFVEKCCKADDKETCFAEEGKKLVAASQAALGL
# Method in brief: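 HSA immobilised on a CM5 chip by EDC/NHS amine coupling. Constructs (anti-TNFR1 dAb–linker–AlbudAb, N- to C-terminal) injected at 1 μM over the surface, with binding followed by SPR.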
binder,measurement,setting,value
"DOM1h-543 (other, VH dAb) VH: EVQLLESGGGLVQPGGSLRLSCAASGFTFMRYRMHWVRQAPGKGLEWVSSIDSNGSSTYYADSVKGRFTISRDNSKNTLYLQMNSLRAEDTAVYYCAKDRTERSPVFDYWGQGTLVTVSS",binding result,[1],binds
"DOM1h-574-16 (other, VH dAb; also called DOM1h-57-16 [sic]; the DOM0100 dAb) VH: EVQLLESGGGLVQPGGSLRLSCAASGFTFVKYSMGWVRQAPGKGPEWVSQISNTGDRTYYADSVKGRFTISRDNSKNTLYLQMNSLRAEDTAVYYCAIYTGRWEPFDYWGQGTLVTVSS",binding result,[2],binds
same,binding result,[3],no binding (tested: 2.5 µM)
same,binding result,[4],binds
same,MRC-5 ND50 (TNFα-mediated IL-8 release),[5],8 nM
same,Kd,[6],20 nM
same,binding result,[7],binds
same,Kd,[8],1 nM
same,Kd,[9],1 nM
same,Kd,[10],20 nM
"DMS0169 (bispecific antibody, anti-TNFR1 dAb / AlbudAb in-line fusion) EVQLLESGGGLVQPGGSLRLSCAASGFTFVKYSMGWVRQAPGKGLEWVSQISNTADRTYYAHSVKGRFTISRDNSKNTLYLQMNSLRAEDTAVYYCAIYTGRWVPFEYWGQGTLVTVSSASTSGPSDIQMTQSPSSLSASVGDRVTITCRASRPIGTMLSWYQQKPGKAPKLLILFGSRLQSGVPSRFSGSGSGTDFTLTISSLQPEDFATYYCAQAGTHPTTFGQGTKVEIKRAAAEQKLISEEDLN",ND50 (MRC5),[11],2.7 nM
same,Kd,[12],~200 nM
"DMS0168 (bispecific antibody, anti-TNFR1 dAb / AlbudAb in-line fusion) EVQLLESGGGLVQPGGSLRLSCAASGFTFVKYSMGWVRQAPGKGLEWVSQISNTADRTYYAHSVKGRFTISRDNSKNTLYLQMNSLRAEDTAVYYCAIYTGRWVPFEYWGQGTLVTVSSASTSGPSDIQMTQSPSSLSASVGDRVTITCRASQSIIKHLKWYQQKPGKAPKLLIYGASRLQSGVPSRFSGSGSGTDFTLTISSLQPEDFATYYCQQGARWPQTFGQGTKVEIKRAAAEQKLISEEDLN",ND50 (MRC5),[11],16 nM
same,Kd,[13],~200 nM
"DMS0182 (bispecific antibody, in-line fusion of an anti-TNFR1 dAb and an anti-serum albumin dAb (AlbudAb)) EVQLLESGGGLVQPGGSLRLSCAASGFTFVKYSMGWVRQAPGKGPEWVSQISNTGDRTYYADSVKGRFTISRDNSKNTLYLQMNSLRAEDTAVYYCAIYTGRWEPFDYWGQGTLVTVSSASTDIQMTQSPSSLSASVGDRVTITCRASRPIGTTLSWYQQKPGKAPKLLIWFGSRLQSGVPSRFSGSGSGTDFTLTISSLQPEDFATYYCAQAGTHPTTFGQGTKVEIKRAAAEQKLISEEDLN",ND50 (MRC5),[11],6 nM
same,Kd,[14],> 1000 nM
same,Kd,rat albumin,> 1000 nM
same,koff,[15],0.75 s⁻¹
same,koff,[16],0.17 s⁻¹
